# In IntAct's records for PubMed 31515488:
# B1: Peroxisomal bifunctional enzyme (Homo sapiens), Q08426 (parent)
# chain: MAEYTRLHNALALIRLRNPPVNAISTTLLRDIKEGLQKAVIDHTIKAIVICGAEGKFSAGADIRGFSAPRTFGLTLGHVVDEIQRNEKPVVAAIQGMAFGGGLELALGCHYRIAHAEAQVGLPEVTLGLLPGARGTQLLPRLTGVPAALDLITSGRRILADEALKLGILDKVVNSDPVEEAIRFAQRVSDQPLESRRLCNKPIQSLPNMDSIFSEALLKMRRQHPGCLAQEACVRAVQAAVQYPYEVGIKKEEELFLYLLQSGQARALQYAFFAERKANKWSTPSGASWKTASARPVSSVGVVGLGTMGRGIVISFARARIPVIAVDSDKNQLATANKMITSVLEKEASKMQQSGHPWSGPKPRLTSSVKELGGVDLVIEAVFEEMSLKKQVFAELSAVCKPEAFLCTNTSALDVDEIASSTDRPHLVIGTHFFSPAHVMKLLEVIPSQYSSPTTIATVMNLSKKIKKIGVVVGNCFGFVGNRMLNPYYNQAYFLLEEGSKPEEVDQVLEEFGFKMGPFRVSDLAGLDVGWKSRKGQGLTGPTLLPGTPARKRGNRRYCPIPDVLCELGRFGQKTGKGWYQYDKPLGRIHKPDPWLSKFLSRYRKTHHIEPRTISQDEILERCLYSLINEAFRILGEGIAASPEHIDVVYLHGYGWPRHKGGPMFYASTVGLPTVLEKLQKYYRQNPDIPQLEPSDYLKKLASQGNPPLKEWQSLAGSPSSKL
# partner: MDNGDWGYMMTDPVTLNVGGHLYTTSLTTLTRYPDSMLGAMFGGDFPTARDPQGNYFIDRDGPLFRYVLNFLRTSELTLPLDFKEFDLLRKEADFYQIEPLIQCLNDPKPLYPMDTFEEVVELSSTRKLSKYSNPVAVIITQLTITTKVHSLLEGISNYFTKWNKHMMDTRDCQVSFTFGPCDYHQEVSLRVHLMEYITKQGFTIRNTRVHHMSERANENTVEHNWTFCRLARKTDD
# B2: Putative RNA-binding protein Luc7-like 2 (Homo sapiens), Q9Y383 (parent)
# chain: MSAQAQMRAMLDQLMGTSRDGDTTRQRIKFSDDRVCKSHLLNCCPHDVLSGTRMDLGECLKVHDLALRADYEIASKEQDFFFELDAMDHLQSFIADCDRRTEVAKKRLAETQEEISAEVAAKAERVHELNEEIGKLLAKVEQLGAEGNVEESQKVMDEVEKARAKKREAEEVYRNSMPASSFQQQKLRVCEVCSAYLGLHDNDRRLADHFGGKLHLGFIEIREKLEELKRVVAEKQEKRNQERLKRREEREREEREKLRRSRSHSKNPKRSRSREHRRHRSRSMSRERKRRTRSKSREKRHRHRSRSSSRSRSRSHQRSRHSSRDRSRERSKRRSSKERFRDQDLASCDRDRSSRDRSPRDRDRKDKKRSYESANGRSEDRRSSEEREAGEI
# B3: 6-pyruvoyl tetrahydrobiopterin synthase (Homo sapiens), Q03393 (parent)
# chain: MSTEGGGRRCQAQVSRRISFSASHRLYSKFLSDEENLKLFGKCNNPNGHGHNYKVVVTVHGEIDPATGMVMNLADLKKYMEEAIMQPLDHKNLDMDVPYFADVVSTTENVAVYIWDNLQKVLPVGVLYKVKVYETDNNIVVYKGE
# B4: LHFPL tetraspan subfamily member 5 protein (Homo sapiens), Q8TAF8 (parent)
# chain: MVKLLPAQEAAKIYHTNYVRNSRAVGVMWGTLTICFSVLVMALFIQPYWIGDSVNTPQAGYFGLFSYCVGNVLSSELICKGGPLDFSSIPSRAFKTAMFFVALGMFLIIGSIICFSLFFICNTATVYKICAWMQLAAATGLMIGCLVYPDGWDSSEVRRMCGEQTGKYTLGHCTIRWAFMLAILSIGDALILSFLAFVLGYRQDKLLPDDYKADGTEEV
# partner: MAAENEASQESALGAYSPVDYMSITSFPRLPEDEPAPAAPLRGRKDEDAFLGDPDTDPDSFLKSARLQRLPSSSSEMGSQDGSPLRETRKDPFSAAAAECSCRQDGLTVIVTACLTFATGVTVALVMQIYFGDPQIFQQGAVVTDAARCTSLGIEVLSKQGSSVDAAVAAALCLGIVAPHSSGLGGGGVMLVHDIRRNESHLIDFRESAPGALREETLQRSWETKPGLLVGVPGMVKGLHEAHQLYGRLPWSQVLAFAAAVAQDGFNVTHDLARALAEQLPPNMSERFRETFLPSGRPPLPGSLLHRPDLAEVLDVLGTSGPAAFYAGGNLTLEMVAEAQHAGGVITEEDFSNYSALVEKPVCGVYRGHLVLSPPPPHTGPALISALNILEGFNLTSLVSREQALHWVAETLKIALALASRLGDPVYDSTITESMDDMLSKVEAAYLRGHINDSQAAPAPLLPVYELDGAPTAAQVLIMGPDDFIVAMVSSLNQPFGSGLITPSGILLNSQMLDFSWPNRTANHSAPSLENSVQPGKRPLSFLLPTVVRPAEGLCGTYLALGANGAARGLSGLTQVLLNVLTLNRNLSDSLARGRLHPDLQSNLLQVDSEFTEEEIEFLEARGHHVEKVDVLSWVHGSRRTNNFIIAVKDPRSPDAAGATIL
# B5: Homeobox protein VENTX (Homo sapiens), O95231 (parent)
# chain: MRLSSSPPRGPQQLSSFGSVDWLSQSSCSGPTHTPRPADFSLGSLPGPGQTSGAREPPQAVSIKEAAGSSNLPAPERTMAGLSKEPNTLRAPRVRTAFTMEQVRTLEGVFQHHQYLSPLERKRLAREMQLSEVQIKTWFQNRRMKHKRQMQDPQLHSPFSGSLHAPPAFYSTSSGLANGLQLLCPWAPLSGPQALMLPPGSFWGLCQVAQEALASAGASCCGQPLASHPPTPGRPSLGPALSTGPRGLCAMPQTGDAF
# partner: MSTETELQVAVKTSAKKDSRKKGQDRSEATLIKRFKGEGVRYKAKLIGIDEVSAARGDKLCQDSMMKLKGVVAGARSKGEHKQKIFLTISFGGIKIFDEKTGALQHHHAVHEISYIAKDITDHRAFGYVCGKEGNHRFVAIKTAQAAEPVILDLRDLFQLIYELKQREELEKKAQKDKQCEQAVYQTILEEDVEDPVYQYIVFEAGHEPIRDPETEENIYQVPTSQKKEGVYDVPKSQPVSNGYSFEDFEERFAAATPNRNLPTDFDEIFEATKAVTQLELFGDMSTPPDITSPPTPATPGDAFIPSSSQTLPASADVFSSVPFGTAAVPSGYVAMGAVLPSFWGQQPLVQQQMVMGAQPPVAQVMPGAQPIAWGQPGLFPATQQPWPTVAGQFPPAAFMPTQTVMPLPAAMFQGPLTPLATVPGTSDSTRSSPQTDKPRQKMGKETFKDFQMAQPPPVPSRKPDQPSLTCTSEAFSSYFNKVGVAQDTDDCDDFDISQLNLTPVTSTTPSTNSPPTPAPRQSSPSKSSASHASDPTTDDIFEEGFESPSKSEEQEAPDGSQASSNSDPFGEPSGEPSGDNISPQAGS
# B6: Retinoic acid receptor alpha (Homo sapiens), P10276 (parent)
# chain: MASNSSSCPTPGGGHLNGYPVPPYAFFFPPMLGGLSPPGALTTLQHQLPVSGYSTPSPATIETQSSSSEEIVPSPPSPPPLPRIYKPCFVCQDKSSGYHYGVSACEGCKGFFRRSIQKNMVYTCHRDKNCIINKVTRNRCQYCRLQKCFEVGMSKESVRNDRNKKKKEVPKPECSESYTLTPEVGELIEKVRKAHQETFPALCQLGKYTTNNSSEQRVSLDIDLWDKFSELSTKCIIKTVEFAKQLPGFTTLTIADQITLLKAACLDILILRICTRYTPEQDTMTFSDGLTLNRTQMHNAGFGPLTDLVFAFANQLLPLEMDDAETGLLSAICLICGDRQDLEQPDRVDMLQEPLLEALKVYVRKRRPSRPHMFPKMLMKITDLRSISAKGAERVITLKMEIPGSMPPLIQEMLENSEGLDTLSGQPGGGGRDGGGLAPPPGSCSPSLSPSSNRSSPATHSP
# partner: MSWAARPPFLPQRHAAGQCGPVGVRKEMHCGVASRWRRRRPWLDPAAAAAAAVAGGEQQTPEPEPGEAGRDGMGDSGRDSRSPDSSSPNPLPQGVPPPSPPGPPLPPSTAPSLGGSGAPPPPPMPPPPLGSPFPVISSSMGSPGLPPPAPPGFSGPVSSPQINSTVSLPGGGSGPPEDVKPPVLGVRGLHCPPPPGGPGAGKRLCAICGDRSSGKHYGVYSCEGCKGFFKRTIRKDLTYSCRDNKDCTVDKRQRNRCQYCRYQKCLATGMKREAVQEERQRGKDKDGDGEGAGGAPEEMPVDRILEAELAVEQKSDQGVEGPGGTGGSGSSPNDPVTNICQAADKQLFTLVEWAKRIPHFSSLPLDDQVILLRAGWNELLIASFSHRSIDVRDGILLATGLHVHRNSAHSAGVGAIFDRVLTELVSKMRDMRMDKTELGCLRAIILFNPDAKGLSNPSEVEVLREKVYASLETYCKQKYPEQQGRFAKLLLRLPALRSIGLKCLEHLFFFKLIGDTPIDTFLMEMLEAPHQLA
# Variants of: B1
# Conditions: with kctd6_human KCTD6, Q8NC69
row,Variant,effect of a mutation on the interaction
1,R483Q,disrupting interaction strength
2,S703F,with no effect
3,I646T,disrupting interaction strength
4,L715S,disrupting interaction strength

# Variants of: B2
# Conditions: with nfya_human NFYA
row,Variant,effect of a mutation on the interaction
1,K368Q,with no effect

# Variants of: B2
# Conditions: with srsf6_human SRSF6, Q13247
# Sequence of srsf6_human SRSF6, Q13247 (Q13247 whole entry, looked up): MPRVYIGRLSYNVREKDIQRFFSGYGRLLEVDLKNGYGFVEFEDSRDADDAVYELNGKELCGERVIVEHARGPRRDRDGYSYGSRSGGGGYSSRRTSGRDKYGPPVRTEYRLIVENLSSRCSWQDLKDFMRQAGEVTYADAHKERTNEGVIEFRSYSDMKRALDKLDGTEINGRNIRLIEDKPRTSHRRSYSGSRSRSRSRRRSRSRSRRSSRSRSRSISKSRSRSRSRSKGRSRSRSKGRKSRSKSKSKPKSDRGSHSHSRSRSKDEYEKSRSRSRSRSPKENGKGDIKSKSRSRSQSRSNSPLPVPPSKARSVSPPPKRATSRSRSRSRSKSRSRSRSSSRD
row,Variant,effect of a mutation on the interaction
1,K368Q,with no effect

# Variants of: B3
# Conditions: with ntaq1_human NTAQ1, Q96HA8
row,Variant,effect of a mutation on the interaction
1,P123S,disrupting interaction strength
2,R25Q,disrupting interaction strength
3,T67M,disrupting interaction strength
4,R9C,disrupting interaction strength
5,T106M,disrupting interaction strength

# Variants of: B3
# Conditions: with c1qc_human C1QC
row,Variant,effect of a mutation on the interaction
1,R25Q,disrupting interaction strength
2,R9C,disrupting interaction strength
3,T106M,disrupting interaction strength

# Variants of: B3
# Conditions: with fxr2_human FXR2, P51116
row,Variant,effect of a mutation on the interaction
1,R25Q,disrupting interaction strength
2,R9C,disrupting interaction strength
3,T106M,disrupting interaction strength

# Variants of: B3
# Conditions: with sdcb1_human SDCBP
row,Variant,effect of a mutation on the interaction
1,T106M,disrupting interaction strength

# Variants of: B4
# Conditions: with ggt7_human GGT7, Q9UJ14
row,Variant,effect of a mutation on the interaction
1,K205N,with no effect

# Variants of: B5
# Conditions: with dab1_human DAB1, O75553
row,Variant,effect of a mutation on the interaction
1,A226E,disrupting interaction strength
2,L42P,with no effect
3,M251V,with no effect

# Variants of: B6
# Conditions: with rxrb_human RXRB
row,Variant,effect of a mutation on the interaction
1,P318R,with no effect
